Source: PMC12012759 (Protein Science : A Publication of the Protein Society, 2025)

What was measured:
Experiment in all cases: ELISA
Conditions in all cases: both partners purified
human serum albumin = human serum albumin (Homo sapiens, UniProt P02768)
[1] = target: T1, Fc fusion of Severe acute respiratory syndrome coronavirus 2 P0DTC2 (SARS‐CoV‐2 Wuhan, UniProt P0DTC2)
T1 construct: also called RBD‐Fc; RBD

[2] = target: full‐length SARS‐CoV‐2 spike protein (1273 amino acids) (SARS-CoV-2 Wuhan, UniProt P0DTC2)

Measured: binding result

B1: Clostridioides difficile toxin A‐specific A20.1 VHH (VHH)
VHH: QVQLVESGGGLAQAGGSLRLSCAASGRTFSMDPMAWFRQPPGKEREFVAAGSSTGRTTYYADSVKGRFTISRDNAKNTVYLQMNSLKPEDTAVYYCAAAPYGANWYRDEYAYWGQGTQVTVSS
no binding: all assays above
